Test results published in PMC3150801 (Nature, 2011).

Target: GST hLRH-1 ligand binding domain (amino acid residues, 185-541) (human, UniProt O00482 185-541)
Experiment: pull-down

Sequence of GST hLRH-1 ligand binding domain (amino acid residues, 185-541) (O00482 185-541): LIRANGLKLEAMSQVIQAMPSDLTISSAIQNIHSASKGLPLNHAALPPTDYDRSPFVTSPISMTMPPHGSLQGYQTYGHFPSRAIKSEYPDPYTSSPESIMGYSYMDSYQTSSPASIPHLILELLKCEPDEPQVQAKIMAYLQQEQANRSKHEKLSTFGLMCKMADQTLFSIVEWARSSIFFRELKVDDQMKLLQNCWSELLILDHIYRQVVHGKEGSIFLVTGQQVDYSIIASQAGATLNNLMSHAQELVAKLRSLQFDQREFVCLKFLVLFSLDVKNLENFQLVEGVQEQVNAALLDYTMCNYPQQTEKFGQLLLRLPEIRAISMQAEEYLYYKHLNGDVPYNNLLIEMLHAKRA

B1: Full-length [35S]methionine-labeled SRC-3 (natural protein)
chain: not shown
modifications: [35S]methionine label
- fold increase of binding with DLPC or DUPC over basal: ~3 fold
